Laboratory results reported in patent US20240075137A1 (COMPUGEN, published 2024).
Like-named read-outs stand apart in the source and are kept apart here.

B1: CPA.9.059 (Fab, V domains shown)
VH: EVQLVETGGGLIQPGGSLRLSCAASGFTVSSNYMSWVRQAPGKGLEWVSVIYSGGSTYYADSVKGRFTISRDNSKNTLYLQMNSLRAEDTAVYYCARGARYSYGQYPYWGQGTLVTVSS
VL: DIQLTQSPSFLSASVGDRVTITCRASHDISSLFSWYQQKPGKAPKLLIYAASTLQTGVPSRFSGSASGTEFTLTISSLQPEDFATYYCLQLDSFPTWTFGQGTKVEIK
notes: phage fab, campaign 2; fab form of CPA.9.059 hIgG4 (m73); also called CPA.9.059 (fab)
B2: CPA.9.018 (Fab, V domains shown)
VH: QVQLVESGGGLVQPGGSLRLSCAASGFTFSSYGMHWVRQAPGKGLEWVAFIRYDGSNKYYADSVKGRFTISRDNSKNTLYLQMNSLRAEDTAVYYCAKEMLVQDYYYMDVWGQGTTVTVSS
VL: DVVMTQSPLSLPVSPGEPASISCRSSQNLLHRNGINYLNWYLQKPGQSPQLLIYWGSNRASGVPDRFSGSGSGTDFTLKISRVEAEDVGVYYCMQGLQIPPTFGQGTKVDIK
notes: phage fab, campaign 1; fab form of CPA.9.018-H4; also called CPA.9.018 (fab)
B3: CHA.7.526 (antibody, V domains shown)
VH: QVQLKESGPGLVAPSQSLSITCTVSGFSLTAYNINWVRQPPGKGLEWLGMIWGDGNTDYNSPLKSRLTISKDNSKSQVFLKMDSLQTDDTARYYCARDLKVRRDSPYTMDYWGQGTSVTVSS
VL: NIMMTQSPSSLAVSAGEKVTMSCKSSQSVLYSSNQKNYLAWYQQKPGQSPKLLIYWASNRESGVPDRFTGSGSGTDFTLTISSVQAEDLAVYYCHQYLSSYTFGGGTKLEIK
B4: CHA.7.508 (antibody, V domains shown)
VH: EVQLQQSGPDLVKPGASMKISCKASGYTFIDYNIHWVKQSQGKSLDWIGYIYPYNGGTGYNQKFKNKATLTVDSSSSTAYMEVRSLTFEDSAVYFCAREADYYGNRGQFDYWGQGTLVTVSA
VL: DIQMTQSPASLSVSVGETVTITCRASENIFSNLAWYQQKQGKSPQLLVYGEANLADGVPSRFSGSGSGTQYSLKINSLQSEDFGNYYCQHFWGTPYTFGGGTTLEIK
B5: CPA.9.057 (Fab, V domains shown)
VH: QVQLQESGPGLVKPSETLSLTCTVSGGSISSSSYYWGWIRQPPGKGLEWIGSIYYSGSTYYNPSLKSRVTISVDTSKNQFSLKLSSVTAADTAVYYCARQGAAAGNPFDIWGQGTMVTVSS
VL: QSVLTQPPSVSGTPGQRVTISCSGSSSNIGSNFVYWHQQLTGTAPKLLIYRNTQRPSGVPDRFSGSKSGTSASLAIGGLRSEDEADYYCATWDDSLSAWVFGGGTKLTVL
notes: phage fab, campaign 2; fab form of CPA.9.057-H4; also called CPA.9.057 (fab)
B6: CHA.7.535 (antibody, V domains shown)
VH: EVQLQQSGPELVKPGASVKISCKTSGYTFTKNTMHWVRQSHGKSLEWIGGINPNSGGASFNQKFMGKATLTVDKSSSTAYMELRSLTSEDSAVYYCARDGYDGDWFFDVWGAGTTVTVSS
VL: DIQMNQSPFSLSASLGDTVTITCHASQNIYVWLSWYQQKPGNIPKLLIYKASDLHTGVPSRFSGSGSGTDFTLNISSLQPEDIATYYCQQGQSYPRTFGGGTKLEIK
B7: CHA.7.503 (antibody, V domains shown)
VH: QVQLQQSGAELAKPGASVKMSCKASGYTFTSNWMHWVKQRPGQGLEWIGYINPSNGYTECNQKFRDKATLSADKSSSTAYMQLNSLTSADSAVYYCALMISAWLPYWGQGTLVTVSA
VL: DIVLTQSPASLAISLGQRATISCRASQSVSASSYSYVHWYQQKPGQPPKLLIKYASSLESGVPARFSGSGSGTDFTLNIHPVEEEDTATYYCLHTWEIPYTFGGGTKLEIK
B8: CHA.7.502 (antibody, V domains shown)
VH: DVQLVESGGDLVQPGGSRKLSCTASGFTFSNFGMHWVRQAPEKGLEWVAYISSGSSTIYYADTVKGRFTISRDNPENTLFLQMTSLRSEDTAMYYCTRLDYYTNSYSMDHWGQGTSVTVSS
VL: QIVLTQSPALMSASPGEKVTLTCSASSSLPYIYWYQQKPGSSPKPWIYLTSNLASGVPARFSGSRSGTSYSLTISSVEAEDAATYYCQQWSSNPFTFGSGTKLEIK
B9: CHA.7.506 (antibody, V domains shown)
VH: QVQLQQSGAELTRPGASVNLSCKASGYTFTSYWMQWVKQRPGQGLEWIGAIYPGDGDTRFNQKFKGKATLTADESSSTAYMQLSSLASEDSAVYYCATYYRYDDYWGQGTTLTVSS
VL: QIVLTQSPAIMSASPGEKVTMTCSASSSVSYMHWYQQKSGTSPKRWIYDTSKLASGVPTRFSGSGSGTSYSLTISSMEAEDAATYYCQQWSSNPYTFGGGTKLEIK
B10: CHA.7.534 (antibody, V domains shown)
VH: EVQLQQSGAELVKPGASVRLSCTASGFSIRDTYIHWVKQRPEQGLDWIGKIDPANGKSEYDPKFQGRATMTTDTSSNTAYLQLSSLTSEDTAVYYCTRYGYYPYFDVWGAGTTVTVFS
VL: SIVMTQTPKFLLVSAGDRVAITCKASQSVRHDVVWYQQKPGQSPKLLIYYASSRYTGVPDRFTGSGYGTDFTFTISTVQAEDLALYFCLQDFSSPWTFGGGTKLEIK

Columns and labels:
[1] = target: T1, human TIGIT on cells (human, UniProt Q495A1 22-141); assay: flow cytometry of fab; MFI on human TIGIT over-expressing Expi293 / MFI on parental Expi293
T1 construct: also called Expi293 human TIGIT over-expressing cells
T1 sequence: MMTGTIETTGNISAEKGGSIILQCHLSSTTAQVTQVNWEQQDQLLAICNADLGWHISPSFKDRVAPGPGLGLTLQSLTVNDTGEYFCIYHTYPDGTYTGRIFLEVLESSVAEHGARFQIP

[2] = target: T2, human PVRIG on cells (human, UniProt Q6DKI7 1-326); assay: FACS, HEK hPVRIG cells (HEK OE)
T2 construct: whole, on cells; over-expressed on HEK cells or endogenous on Jurkat and CD8 T cells; also called hPVRIG; HEK hPVRIG cells
T2 sequence (looked up): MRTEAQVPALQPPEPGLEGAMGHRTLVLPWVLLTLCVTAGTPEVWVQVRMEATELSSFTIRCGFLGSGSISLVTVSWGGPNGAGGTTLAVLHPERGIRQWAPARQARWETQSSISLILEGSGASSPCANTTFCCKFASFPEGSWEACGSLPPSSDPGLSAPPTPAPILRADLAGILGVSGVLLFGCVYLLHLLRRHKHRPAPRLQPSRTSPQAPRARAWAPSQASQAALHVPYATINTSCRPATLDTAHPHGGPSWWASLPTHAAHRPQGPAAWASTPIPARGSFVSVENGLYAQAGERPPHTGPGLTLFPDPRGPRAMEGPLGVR

[3] = target: T2, human PVRIG on cells; assay: FACS, human PBMC, CD8+ T cells, 10ug/ml
[4] = target: T2, human PVRIG on cells; assay: FACS, human PBMC, CD8+ T cells, 10ug/ml; remark: listed apart in the source
[5] = target: T2, human PVRIG on cells; assay: FACS, human PBMC, CD56 int. NK cells, 10ug/ml
[6] = target: T2, human PVRIG on cells; assay: FACS, human PBMC, CD56 int. NK cells, 10ug/ml; remark: listed apart in the source
[7] = target: T2, human PVRIG on cells; assay: FACS, Jurkat cells, relative to control, 3.3ug/ml
[8] = target: T2, human PVRIG on cells; assay: FACS, HEK hPVRIG over HEK parental cells, 3.3ug/ml
[9] = target: T3, cynomolgus PVRIG on cells (cynomolgus, UniProt A0A2K5WVV8 41-322); assay: FACS, expi cPVRIG over expi parental cells, 3.3ug/ml
T3 construct: whole, on cells; also called cPVRIG; expi cPVRIG cells
T3 sequence: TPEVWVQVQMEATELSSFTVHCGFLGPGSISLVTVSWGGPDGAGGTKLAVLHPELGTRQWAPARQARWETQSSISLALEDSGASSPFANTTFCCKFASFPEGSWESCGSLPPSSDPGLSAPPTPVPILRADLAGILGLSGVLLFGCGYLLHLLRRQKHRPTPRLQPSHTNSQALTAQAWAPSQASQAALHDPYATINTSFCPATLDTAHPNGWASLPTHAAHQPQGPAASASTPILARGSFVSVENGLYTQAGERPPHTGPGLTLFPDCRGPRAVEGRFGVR

[10] = target: T3, cynomolgus PVRIG on cells; assay: as above; remark: listed apart in the source
[11] = target: T4, PVRIG (FACS-based competition assay of FIGS. 7 and 15) (Homo sapiens, UniProt Q6DKI7); assay: FACS-based competition assay of PVRIG blocking; format and competitor not given
T4 construct: made because the format of the assay is only described in U.S. Ser. No. 15/048,967; also called human PVRIG
T4 sequence (receptor, looked up): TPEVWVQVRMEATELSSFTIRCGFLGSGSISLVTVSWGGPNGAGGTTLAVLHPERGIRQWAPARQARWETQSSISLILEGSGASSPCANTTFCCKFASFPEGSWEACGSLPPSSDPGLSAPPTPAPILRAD

[12] = target: T4, PVRIG (FACS-based competition assay of …); assay: as above; remark: listed apart in the source
[13] = target: T2, human PVRIG on cells; assay: FACS, human PBMC, CD8+ T cells, 10ug/ml; remark: listed apart in the source
[14] = target: T2, human PVRIG on cells; assay: FACS, human PBMC, CD56 int. NK cells, 10ug/ml; remark: listed apart in the source
[15] = target: T3, cynomolgus PVRIG on cells; assay: FACS, expi cPVRIG over expi parental cells, 3.3ug/ml; remark: listed apart in the source

Binder | MFIr (OE/Par) hTIGIT [1] | EC50 [2] [nM] | gMFIr Human CD8+ T cells [3] | gMFIr Human CD8+ T cells [4] | gMFIr Human CD56 int. NK [5] | gMFIr Human CD56 int. NK [6] | gMFIr Jurkat [7] | gMFIr HEK OE/par [8] | gMFIr Expi cyno OE/par [9] | gMFIr Expi cyno OE/par [10] | IC50 [11] [nM] | IC50 [12] [nM] | gMFIr Human CD8+ T cells [13] | gMFIr Human CD56 int. NK [14] | gMFIr Expi cyno OE/par [15]
B1 | 11 |  |  |  |  |  |  |  |  |  |  |  |  |  | 
B2 | 16 |  |  |  |  |  |  |  |  |  |  |  |  |  | 
B3 |  | 2.99 | 1.71 | 1.71 | 2.08 | 2.08 | 3.98 | 47.3 | 0.79 | 0.79 | 58.9 | 58.9 |  |  | 
B4 |  | 3.3 |  | 4.09 |  | 3.6 | 6.5 | 45.9 |  | 41.5 | 37.9 | 37.9 | 4.09 | 3.6 | 41.5
B5 | 30 |  |  |  |  |  |  |  |  |  |  |  |  |  | 
B6 |  | 3.67 | 1.28 | 1.28 | 2.24 | 2.24 | 2.79 | 40.4 | 0.82 | 0.82 | 821 | 821 |  |  | 
B7 |  | 1.05 |  | 1.96 |  | 3.15 | 23.6 | 261 |  | 106 |  |  | 1.96 | 3.15 | 106
B8 |  | 40.2 |  | 1.41 |  | 1.97 | 6.21 | 72 |  | 60.5 | 39.9 | 39.9 | 1.41 | 1.97 | 60.5
B9 |  |  |  |  |  |  |  | 0.76 |  | 0.77 | 31.6 | 31.6 |  |  | 0.77
B10 |  | 1.87 | 1.96 | 1.96 | 2.6 | 2.6 | 5.05 | 43.7 | 46.3 | 46.3 | 181 | 181 |  |  | 
